In patent US8008547B2, “Glyphosate-N-acetyltransferase (GAT) genes” (E.I. duPont de Nemours, priority 2000, dated 2011):
Positions count from the first letter of the chain named.

B1: SEQ ID NO: 479: GAT polypeptide (protein)
chain: MIEVKPINAEDTYELRHRILRPNQPIEACMYETDLLRGAFHLGGYYRGQLISIASFHKAEHSELQGQKQYQLRGMATLEGYREQKAGSTLIKHAEQLLREKGADMLWCNARTSAAGYYKRLGFSEQGEVFDTPPVGPHILMYKKLT
modifications: 1_3H2
notes: GAT polypeptide
B2: SEQ ID NO: 483: GAT polypeptide (protein)
chain: MLEVKPINAEETYELRHKILRPNQPLEACMYESDLLRGSFHLGGYYRGQLISIASFHQAEHSELEGQKQYQLRGMATLEGFREQKAGSTLIKHAEQILRKRGADMLWCNARTSAAGYYKKLGFSEHGEIFDTPPVGPHILMYKKLT
modifications: 1_5H5
notes: GAT polypeptide
B3: SEQ ID NO: 475: GAT polypeptide (protein)
chain: MIEVKPINAEETYELRHKILRPNQPLEACMYETDLLRGAFHLGGFYRGKLISIASFHQADHSELQGQKQYQLRGMATLEGYREQKAGSTLIRHAEQILRKRGADLLWCNARTSAAGYYKKLGFSEHGEIFETPPVGPHILMYKRLT
modifications: 1_2H8
notes: GAT polypeptide
B4: SEQ ID NO: 482: GAT polypeptide (protein)
chain: B3 chain with E11D, K18R, A39S, D60E, E63D, I97L, A115S, K120R, I129V, E131D
modifications: 1_4H1
notes: GAT polypeptide
B5: SEQ ID NO: 499: GAT polypeptide (protein)
chain: B3 chain with E11D, A28V, D60E, E63D, T89S, L105M, A115S, H126Q, I129V
modifications: 6_1F11
notes: GAT polypeptide
B6: SEQ ID NO: 500: GAT polypeptide (protein)
chain: B3 chain with I2L, E11D, A28V, D60E, E83D, T89S, L105M, A115S, H126Q, I129V
modifications: 6_1F1
notes: GAT polypeptide
B7: SEQ ID NO: 480: GAT polypeptide (protein)
chain: MIEVKPINAEDTYELRHKILRPNQPIEACMYESDLLRGSFHLGGFYRGKLISIASFHKAEHSDLEGQNQYQLRGMATLEGYREQKAGSTLIRHAEEILRKRGADMLWCNARTSASGYYKRLGFSEHGEIFDTPPVGPHILMYKRLT
modifications: 1_4C5
notes: GAT polypeptide
B8: SEQ ID NO: 481: GAT polypeptide (protein)
chain: B7 chain with I2L, K18R, S33T, K49Q, N68K, E96Q, S115A, H126Q, I129V, D131E
modifications: 1_4D6
notes: GAT polypeptide
B9: SEQ ID NO: 476: GAT polypeptide (protein)
chain: MIEVKPINAEDTYELRHRILRPNQPIEACMYESDLLRGAFHLGGFYRGKLISIASFHQAEHSDLQGQKQYQLRGMATLEGYREQKAGSSLIRHAEEILRKKGADMLWCNARTTAAGYYKRLGFSEQGEVFDTPPVGPHILMYKRIT
modifications: 1_3A2
notes: GAT polypeptide
B10: SEQ ID NO: 489: GAT polypeptide (protein)
chain: B9 chain with F45Y, D63E, R92K, K101R, M105L, T113S, A115S, R120K, V129I, D131E
modifications: 3_6A10
notes: GAT polypeptide
B11: SEQ ID NO: 477: GAT polypeptide (protein)
chain: MIEVKPINAEDTYELRHKILRPNQPIEACMYESDLLQGSFHLGGFYRGQLISIASFHQAEHSDLQGQKQYQLRGMATLEGFREQKAGSTLIKHAEEILRKKGADLLWCNARTSAAGYYKKLGFSEHGEIFDTPPAGPHILMYKKLT
modifications: 1_3D6
notes: GAT polypeptide
B12: SEQ ID NO: 478: GAT polypeptide (protein)
chain: B11 chain with D11E, H17Q, K18R, Q37R, D63E, F81Y, K120R, A135V, K144R, L145I
modifications: 1_3F3
notes: GAT polypeptide
B13: SEQ ID NO: 485: GAT polypeptide (protein)
chain: B11 chain with Q37R, Q65E, F81Y, E83D, T89S, K101R, K120R, H126Q, A135V, L145I
modifications: 1_6H6
notes: GAT polypeptide
B14: SEQ ID NO: 495: GAT polypeptide (protein)
chain: MLXVKPINAEDTYELRHKILRPNQPXEVCMYEXDLLRGAFHLGGFYRGKLISIASFHQAEHSDLQGQKQYQLRGMATLEGYRDQKAGSSLIKHAEQILRERGADMLWCNARTSASGYYKKLGFSEQGEVFDTPPVGPHILMYKRLT
modifications: X: residue not identified in the source; ends and bridges not checked
notes: GAT polypeptide
B15: SEQ ID NO: 493: GAT polypeptide (protein)
chain: MIEVKPINAEDTYELRHRILRPNQPIEVCMYETDLLRGAFHLGGFYGGKLISIASFHQAEHSDLQGQKQYQLRGMATLEGYRDQKAGSSLIRHAEQILRKRGADMLWCNARTSASGYYKKLGFSEQGEIFETPPVGPHILMYKRIT
modifications: 4_1B10
notes: GAT polypeptide
B16: SEQ ID NO: 494: GAT polypeptide (protein)
chain: B15 chain with I26L
modifications: 5_2B3
notes: GAT polypeptide
B17: SEQ ID NO: 502: GAT polypeptide (protein)
chain: B15 chain with I2L, R18K, I26L, S89T, R92K, I129V, I145L
modifications: 6_1H4
notes: GAT polypeptide
B18: SEQ ID NO: 496: GAT polypeptide (protein)
chain: B15 chain with I2L, R18K, I145L
modifications: 5_2F10
notes: GAT polypeptide
B19: SEQ ID NO: 498: GAT polypeptide (protein)
chain: B15 chain with R18K, I26L, G47R, I129V
modifications: 6_1D5
notes: GAT polypeptide
B20: SEQ ID NO: 501: GAT polypeptide (protein)
chain: B15 chain with I2L, R18K, I26L, Q96E, I129V, E131D, R144K
modifications: 6_1H10
notes: GAT polypeptide
B21: SEQ ID NO: 497: GAT polypeptide (protein)
chain: B15 chain with I2L, R18K, I26L, G47R, K119R, I129V, I145L
modifications: 6_1A11
notes: GAT polypeptide
B22: SEQ ID NO: 484: GAT polypeptide (protein)
chain: MIEVKPINAEETYELRHRILRPNQPIEACMYESDLLRGSFHLGGFYRGKLISIASFHQAEHSDLEGQKQYQLRGMATLEGYRDQKAGSTLIKHAEELLRKRGADMLWCNARTSAAGYYKRLGFSEHGEIYETPPVGPHILMYKKIT
modifications: 1_6F12
notes: GAT polypeptide
B23: SEQ ID NO: 486: GAT polypeptide (protein)
chain: MLEVKPINAEDTYELRHRILRPNQPIEACMYESDLLRGAFHLGGYYRGKLISIASFHQAEHSELQGQKQYQLRGMATLEGYREQKAGSSLVKHAEEILRKRGADLLWCNARTSASGYYKKLGFSEQGEIFETPPVGPHILMYKRIT
modifications: 3_11A10
notes: GAT polypeptide
B24: SEQ ID NO: 491: GAT polypeptide (protein)
chain: B23 chain with R47G, E63D, V91I
modifications: 3_7F9
notes: GAT polypeptide
B25: SEQ ID NO: 488: GAT polypeptide (protein)
chain: B23 chain with R18K, I26L, A28V, S33T, R47G, V91I
modifications: 3_15B2
notes: GAT polypeptide
B26: SEQ ID NO: 487: GAT polypeptide (protein)
chain: B23 chain with Y45F, V91I, I145L
modifications: 3_14F6
notes: GAT polypeptide
B27: SEQ ID NO: 492: GAT polypeptide (protein)
chain: B23 chain with A28V, V91I
modifications: 3_8G11
notes: GAT polypeptide
B28: SEQ ID NO: 490: GAT polypeptide (protein)
chain: B23 chain with S62P, V91I, I129V
modifications: 3_6B1
notes: GAT polypeptide
B29: SEQ ID NO: 278: GAT polypeptide (protein)
chain: MIEVKPINAEDTYEIRHRILRPNQPLEACKYETDLLRGAFHLGGYYRGKLISIASFHQAEHPELEGQKQYQLRGMATLEGYREQKAGSTLIRHAEELLRKKGADLLWCNARTSASGYYKKLGFSEQGEVYDTPPVGPHILMYKKLT
modifications: 10_2C7
notes: GAT polypeptide
B30: SEQ ID NO: 279: GAT polypeptide (protein)
chain: B29 chain with R37G, A39T, I51V, T132I, V135T
modifications: 10_3G5
notes: GAT polypeptide
B31: SEQ ID NO: 280: GAT polypeptide (protein)
chain: B29 chain with K30M, R37G, A39T, I51V, T132I, V135T
modifications: 10_4H7
notes: GAT polypeptide

Assay: Standard protocol for determination of kcat and KM (continuous spectrophotometric assay, Acetyl CoA hydrolysis at 235 nm)
Assay type: biochemical
Details: purified protein, about 23° C., 0.2 mM acetyl CoA; for Kcat: 20 mM HEPES pH 6.8, 10% ethylene glycol; for Km: pH 6.8, glyphosate 0.125 to 10 mM
Method in brief: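 KM from initial rates over 0.125–10 mM glyphosate, fitted by Lineweaver-Burke transformation of Michaelis-Menten; kcat/KM computed as kcat divided by KM. Continuous spectrophotometric read of acetyl-CoA hydrolysis at 235 nm.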

Molecule | Kcat | Km
B1 | 2.13 s⁻¹ | 700 µM
B2 | 3.57 s⁻¹ | 510 µM
B3 | 2.35 s⁻¹ | 480 µM
B4 | 3.93 s⁻¹ | 1200 µM
B5 | 1.7627 s⁻¹ | –
B6 | 1.164 s⁻¹ | –
B7 | 4.23 s⁻¹ | 930 µM
B8 | 2.28 s⁻¹ | 1400 µM
B9 | 3.02 s⁻¹ | 800 µM
B10 | 2.108 s⁻¹ | 660 µM
B11 | 3.77 s⁻¹ | 3500 µM
B12 | 2.78 s⁻¹ | 1500 µM
B13 | 4.57 s⁻¹ | 1050 µM
B14 | 1.257 s⁻¹ | –
B15 | 1.285 s⁻¹ | –
B16 | 0.9458 s⁻¹ | –

Molecule | Kcat | Km
B17 | 1.432 s⁻¹ | –
B18 | 0.912 s⁻¹ | –
B19 | 0.7153 s⁻¹ | –
B20 | 0.2835 s⁻¹ | –
B21 | 0.759 s⁻¹ | –
B22 | 3.48 s⁻¹ | 14700 µM
B23 | 2.2568 s⁻¹ | 170 µM
B24 | 3.2258 s⁻¹ | 290 µM
B25 | 1.7355 s⁻¹ | –
B26 | 3.1405 s⁻¹ | 250 µM
B27 | 1.652 s⁻¹ | –
B28 | 4.3847 s⁻¹ | 430 µM
B29 | 2.25 s⁻¹ | 1400 µM
B30 | 1.46 s⁻¹ | 2000 µM
B31 | 1.87 s⁻¹ | 1700 µM
